Tests used:
Test in all cases: cell-based or functional assay
[1] = target: Env of HIV isolate 3637.v5.c3 (clade C) (HIV)
[2] = target: HIV Env of isolate TV1.29 (HIV)
[3] = target: Env of HIV isolate CH117.4 (clade BC) (HIV)
[4] = target: Env of HIV isolate MB539.2B7 (clade A) (HIV)
[5] = target: Env of HIV isolate ZM53.12 (clade C) (HIV)
[6] = target: HIV Env of isolate CAP244.D3 (HIV)
[7] = target: Env of HIV isolate Q259.17 (clade A) (HIV)
[8] = target: Env of HIV isolate MB201.A1 (clade A) (HIV)
[9] = target: HIV Env of isolate 26191-2.48 (HIV)
[10] = target: Env of HIV isolate PVO.04 (clade B) (HIV)
[11] = target: HIV Env of isolate ZM233.6 (HIV)
[12] = target: Env of HIV isolate 3817.v2.c59 (clade CD) (HIV)
[13] = target: Env of HIV isolate QH0515.01 (clade B) (HIV)
[14] = target: Env of HIV isolate MI369.A5 (clade A) (HIV)
[15] = target: Env of HIV isolate CNE30 (clade C in Table 7) (HIV)
[16] = target: HIV Env of isolate DU156.12 (HIV)
[17] = target: Env of HIV isolate CNE59 (clade AE) (HIV)
[18] = target: HIV Env of isolate X1193.c1 (HIV)
[19] = target: Env of HIV isolate 3016.v5.c45 (clade D) (HIV)
[20] = target: Env of HIV isolate SS1196.01 (clade B) (HIV)
[21] = target: HIV Env of isolate A03349M1.vrc4a (HIV)
[22] = target: Env of HIV isolate X1632.S2.B10 (clade G) (HIV)
[23] = target: HIV Env of isolate ZM214.15 (HIV)
[24] = target: Env of HIV isolate 25710-2.43 (clade C) (HIV)
[25] = target: Env of HIV isolate 271-11 (clade AG) (HIV)
[26] = target: Env of HIV isolate 6095.v1.c10 (clade ACD) (HIV)
[27] = target: Env of HIV isolate 6322.v4.c1 (clade C) (HIV)
[28] = target: HIV Env of isolate CNE21 (HIV)
[29] = target: HIV Env of isolate 0077.v1.c16 (HIV)
[30] = target: HIV Env of isolate X2088.c9 (HIV)
[31] = target: HIV Env of isolate ZM106.9 (HIV)
[32] = target: Env of HIV isolate T33-7 (clade AG) (HIV)
[33] = target: HIV Env of isolate 25711-2.4 (HIV)
[34] = target: Env of HIV isolate C1080.c3 (clade AE) (HIV)
[35] = target: HIV Env of isolate 16055-2.3 (HIV)
[36] = target: Env of HIV isolate 89.6.DG (clade B) (HIV)
[37] = target: Env of HIV isolate Ce1176.A3 (clade C) (HIV)
[38] = target: Env of HIV isolate RW020.2 (clade A) (HIV)
[39] = target: Env of HIV isolate 0260.v5.c36 (clade A) (HIV)
[40] = target: HIV Env of isolate 6631.v3.c10 (HIV)
[41] = target: HIV Env of isolate 3337.v2.c6 (HIV)
[42] = target: HIV Env of isolate 3637.v5.c3 (HIV)
[43] = target: Env of HIV isolate 3988.25 (clade B) (HIV)
[44] = target: Env of HIV isolate NKU3006.ec1 (clade D) (HIV)
[45] = target: Env of HIV isolate BaL.26 (clade B) (HIV)
[46] = target: Env of HIV isolate KNH1209.18 (clade A) (HIV)
[47] = target: HIV Env of isolate CNE7 (HIV)
[48] = target: Env of HIV isolate Q168.a2 (clade AD) (HIV)
[49] = target: HIV Env of isolate MW965.26 (HIV)
[50] = target: HIV Env of isolate X1254.c3 (HIV)

B1: ePGT121.18 (ePGT121.18.H1 VH and ePGT121.17.L1 VL) (antibody, V domains shown)
VH: QMQLQESGPGLVKPGETLSLTCSVSGASISSSYWSWLRETPGKGLEWIGYTHHSGDTNYAPSLKSRVHLGLHPSKNQVSLSLTSVTAADTAVYYCARTLHGRRIYGVVAFNEYYTYFYWPTWGKGTQVTVSS
VL: SDISVAPGETVRITCGGESIGSRAVQWYQHRPGQAPRLIIYNNQDRPPGIPERFSGSPDIDFGTTATLTISNVEAGDEATYYCHIWDSRRPTNWELGPGTTLTVL
B1 was tested, and the IC50, pseudovirus neutralization [1] was > 50000 ng/mL, the IC80, pseudovirus neutralization (M1) [2] was 5 ng/mL and the IC80, pseudovirus neutralization (M2) [2] was 8 ng/mL. For the same binder, the IC50, pseudovirus neutralization [3] was > 50000 ng/mL, the IC50, pseudovirus neutralization [4] was > 50000 ng/mL and the IC50, pseudovirus neutralization [5] was 3 ng/mL. The IC80, pseudovirus neutralization (M1) [6] was > 50000 ng/mL, the IC80, pseudovirus neutralization (M2) [6] was > 50000 ng/mL and the IC50, pseudovirus neutralization [7] was > 50000 ng/mL. It also gave an IC50, pseudovirus neutralization [8] of 1 ng/mL, an IC80, pseudovirus neutralization (M1) [9] of 8 ng/mL and an IC80, pseudovirus neutralization (M2) [9] of 13 ng/mL. The IC50, pseudovirus neutralization [10] was 3 ng/mL, the IC80, pseudovirus neutralization (M1) [11] was 24 ng/mL and the IC80, pseudovirus neutralization (M2) [11] was 24 ng/mL. The IC50, pseudovirus neutralization [12] was 546 ng/mL, the IC50, pseudovirus neutralization [13] was 7 ng/mL and the IC50, pseudovirus neutralization [14] was 2 ng/mL. For the same binder, the IC50, pseudovirus neutralization [15] was 5 ng/mL, the IC80, pseudovirus neutralization (M1) [16] was 3 ng/mL and the IC80, pseudovirus neutralization (M2) [16] was 3 ng/mL. For the same binder, the IC50, pseudovirus neutralization [17] was > 50000 ng/mL, the IC80, pseudovirus neutralization (M1) [18] was 4 ng/mL and the IC80, pseudovirus neutralization (M2) [18] was 5 ng/mL. For the same binder, the IC50, pseudovirus neutralization [19] was > 50000 ng/mL, the IC50, pseudovirus neutralization [20] was 2 ng/mL and the IC80, pseudovirus neutralization (M1) [21] was 7 ng/mL. For the same binder, the IC80, pseudovirus neutralization (M2) [21] was 11 ng/mL, the IC50, pseudovirus neutralization [22] was > 50000 ng/mL and the IC80, pseudovirus neutralization (M1) [23] was 53 ng/mL. The IC80, pseudovirus neutralization (M2) [23] was 67 ng/mL, the IC50, pseudovirus neutralization [24] was 4 ng/mL and the IC50, pseudovirus neutralization [25] was > 50000 ng/mL. For the same binder, the IC50, pseudovirus neutralization [26] was 6 ng/mL, the IC50, pseudovirus neutralization [27] was > 50000 ng/mL and the IC80, pseudovirus neutralization (M1) [28] was 2 ng/mL. The IC80, pseudovirus neutralization (M2) [28] was 2 ng/mL, the IC80, pseudovirus neutralization (M1) [29] was > 50000 ng/mL and the IC80, pseudovirus neutralization (M2) [29] was > 50000 ng/mL. For the same binder, the IC80, pseudovirus neutralization (M1) [30] was 5 ng/mL, the IC80, pseudovirus neutralization (M2) [30] was 9 ng/mL and the IC80, pseudovirus neutralization (M1) [31] was 3 ng/mL. The IC80, pseudovirus neutralization (M2) [31] was 4 ng/mL, the IC50, pseudovirus neutralization [32] was > 50000 ng/mL and the IC80, pseudovirus neutralization (M1) [33] was 5 ng/mL. The IC80, pseudovirus neutralization (M2) [33] was 6 ng/mL, the IC50, pseudovirus neutralization [34] was > 50000 ng/mL and the IC80, pseudovirus neutralization (M1) [35] was 89 ng/mL. For the same binder, the IC80, pseudovirus neutralization (M2) [35] was 59 ng/mL, the IC50, pseudovirus neutralization [36] was 1 ng/mL and the IC50, pseudovirus neutralization [37] was 3 ng/mL. It also gave an IC50, pseudovirus neutralization [38] of 2 ng/mL, an IC50, pseudovirus neutralization [39] of 2 ng/mL and an IC80, pseudovirus neutralization (M1) [40] of 40 ng/mL. For the same binder, the IC80, pseudovirus neutralization (M2) [40] was 44 ng/mL, the IC80, pseudovirus neutralization (M1) [41] was 1250 ng/mL and the IC80, pseudovirus neutralization (M2) [41] was 1430 ng/mL. The IC80, pseudovirus neutralization (M1) [42] was > 50000 ng/mL, the IC80, pseudovirus neutralization (M2) [42] was > 50000 ng/mL and the IC50, pseudovirus neutralization [43] was 3 ng/mL. The IC50, pseudovirus neutralization [44] was > 50000 ng/mL, the IC50, pseudovirus neutralization [45] was 2 ng/mL and the IC50, pseudovirus neutralization [46] was 1 ng/mL. For the same binder, the IC80, pseudovirus neutralization (M1) [47] was 8 ng/mL, the IC80, pseudovirus neutralization (M2) [47] was 7 ng/mL and the IC50, pseudovirus neutralization [48] was 2930 ng/mL. The IC80, pseudovirus neutralization (M1) [49] was 6 ng/mL, the IC80, pseudovirus neutralization (M2) [49] was 4 ng/mL and the IC80, pseudovirus neutralization (M1) [50] was 5 ng/mL. It also gave an IC80, pseudovirus neutralization (M2) [50] of 6 ng/mL.

B2: ePGT121.15.H2.L1 (antibody, V domains shown)
VH: QMQLQESGPGLVKPGETLSLTCSVSGASISSSYWSWLRETPGKGLEWIGYTHHSGDTNYAPSLKSRVHLGLHPSKNQVSLSLTSVTAADTAVYYCARTLHGRRIYGVVAFNEWFTYFYWEVWGKGTQVTVSS
VL: SDISVAPGETVRISCGGESIGSRAVQWYQHRAGQAPKLIIYNNQDRPPGIPERFSGSPDIDFGTTATLTITNVEAGDEATYYCHIWDSRRPTNWVFGGGTTLTVL
For B2, the neutralization (Table 6 value) [28] was 0.000874.

B3: ePGT121.18.17 (ePGT121.18.H17 VH and ePGT121.17.L1 VL) (antibody, V domains shown)
VH: QMQLQESGPGLVKPGETLSLTCSVSGASISSSYWSWLRETPGKGLEWIGYTHHSGDTNYAPSLKSRVTIGLDPSKNQVSLSLTSVTAADTAVYYCARTLHGRRIYGVVAFNEYYTYFYWPTWGKGTQVTVSS
VL: SDISVAPGETVRITCGGESIGSRAVQWYQHRPGQAPRLIIYNNQDRPPGIPERFSGSPDIDFGTTATLTISNVEAGDEATYYCHIWDSRRPTNWELGPGTTLTVL
In the case of B3, the IC50, pseudovirus neutralization [1] is reported as > 50000 ng/mL, the IC80, pseudovirus neutralization [2] is reported as 31 ng/mL and the IC50, pseudovirus neutralization [3] is reported as > 50000 ng/mL. For the same binder, the IC50, pseudovirus neutralization [4] was > 50000 ng/mL, the IC50, pseudovirus neutralization [5] was 15 ng/mL and the IC80, pseudovirus neutralization [6] was > 50000 ng/mL. The IC50, pseudovirus neutralization [7] was > 50000 ng/mL, the IC50, pseudovirus neutralization [8] was 4 ng/mL and the IC80, pseudovirus neutralization [9] was 25 ng/mL. For the same binder, the IC50, pseudovirus neutralization [10] was 9 ng/mL, the IC80, pseudovirus neutralization [11] was 65 ng/mL and the IC50, pseudovirus neutralization [12] was 4750 ng/mL. For the same binder, the IC50, pseudovirus neutralization [13] was 35 ng/mL, the IC50, pseudovirus neutralization [14] was 8 ng/mL and the IC50, pseudovirus neutralization [15] was 18 ng/mL. For the same binder, the IC80, pseudovirus neutralization [16] was 6 ng/mL, the IC50, pseudovirus neutralization [17] was > 50000 ng/mL and the IC80, pseudovirus neutralization [18] was 13 ng/mL. The IC50, pseudovirus neutralization [19] was > 50000 ng/mL, the IC50, pseudovirus neutralization [20] was 4 ng/mL and the IC80, pseudovirus neutralization [21] was 20 ng/mL. The IC50, pseudovirus neutralization [22] was > 50000 ng/mL, the IC80, pseudovirus neutralization [23] was 294 ng/mL and the IC50, pseudovirus neutralization [24] was 8 ng/mL. The IC50, pseudovirus neutralization [25] was > 50000 ng/mL, the IC50, pseudovirus neutralization [26] was 45 ng/mL and the IC50, pseudovirus neutralization [27] was > 50000 ng/mL. The IC80, pseudovirus neutralization [28] was 5 ng/mL, the IC80, pseudovirus neutralization [29] was > 50000 ng/mL and the IC80, pseudovirus neutralization [30] was 17 ng/mL. For the same binder, the IC80, pseudovirus neutralization [31] was 8 ng/mL, the IC50, pseudovirus neutralization [32] was > 50000 ng/mL and the IC80, pseudovirus neutralization [33] was 17 ng/mL. The IC50, pseudovirus neutralization [34] was > 50000 ng/mL, the IC80, pseudovirus neutralization [35] was 207 ng/mL and the IC50, pseudovirus neutralization [36] was 4 ng/mL. The IC50, pseudovirus neutralization [37] was 8 ng/mL, the IC50, pseudovirus neutralization [38] was 3 ng/mL and the IC50, pseudovirus neutralization [39] was 9 ng/mL. For the same binder, the IC80, pseudovirus neutralization [40] was 269 ng/mL, the IC80, pseudovirus neutralization [41] was 1340 ng/mL and the IC80, pseudovirus neutralization [42] was > 50000 ng/mL. For the same binder, the IC50, pseudovirus neutralization [43] was 4 ng/mL, the IC50, pseudovirus neutralization [44] was > 50000 ng/mL and the IC50, pseudovirus neutralization [45] was 4 ng/mL. For the same binder, the IC50, pseudovirus neutralization [46] was 3 ng/mL, the IC80, pseudovirus neutralization [47] was 17 ng/mL and the IC50, pseudovirus neutralization [48] was 1520 ng/mL. The IC80, pseudovirus neutralization [49] was 11 ng/mL and the IC80, pseudovirus neutralization [50] was 15 ng/mL.

Reference: US20210292396A1
